Here are results for four variants from FireProtDB (doi:10.1021/bi00212a026).

To fix the notation:
B1: Ribonuclease, P00648 (parent)
chain: MMKMEGIALKKRLSWISVCLLVLVSAAGMLFSTAAKTETSSHKAHTEAQVINTFDGVADYLQTYHKLPDNYITKSEAQALGWVASKGNLADVAPGKSIGGDIFSNREGKLPGKSGRTWREADINYTSGFRNSDRILYSSDWLIYKTTDHYQTFTKIR

In this series the parent is B1. Particulars: Bacillus amyloliquefaciens; pH 6.3; 25 °C; Urea; Fluorescence; MES 50 mM; NaCl 0.15 M; reversible: yes; structure 1BNI; whole UniProt chain shown.

Consider I51A I98V, for which the “ddG of mutation (higher = less stable)” value amounted to 2.63 kcal/mol, the denaturant m value is 2.11 kcal/mol/M, the “denaturant midpoint (higher = more stable)” value (shortened to “denaturant midpoint”) amounted to 2.92 M and the unfolding free energy came out at 6.16 kcal/mol.
As for I123T, the “ddG of mutation (higher = less stable)” value was 2.69 kcal/mol, the denaturant m value amounted to 1.87 kcal/mol/M, the “denaturant midpoint” value came out at 3.26 M and the unfolding free energy is 6.1 kcal/mol.
I51A Y125F: the “ddG of mutation (higher = less stable)” value was found to be 2.53 kcal/mol, the denaturant m value amounted to 1.95 kcal/mol/M, the “denaturant midpoint” value was 3.21 M and the unfolding free energy stood at 6.26 kcal/mol.
For I51A I123V, in that order: 1.86 kcal/mol, 1.92 kcal/mol/M, 3.61 M and 6.93 kcal/mol.
